The values that follow come from publication PMC11134608 (2023).

Test [1] concerns the target T1, RARA/RXRA heterodimer (ligand-binding domains) (UniProt P10276 175-421; P19793 224-462).
T1 chain 1: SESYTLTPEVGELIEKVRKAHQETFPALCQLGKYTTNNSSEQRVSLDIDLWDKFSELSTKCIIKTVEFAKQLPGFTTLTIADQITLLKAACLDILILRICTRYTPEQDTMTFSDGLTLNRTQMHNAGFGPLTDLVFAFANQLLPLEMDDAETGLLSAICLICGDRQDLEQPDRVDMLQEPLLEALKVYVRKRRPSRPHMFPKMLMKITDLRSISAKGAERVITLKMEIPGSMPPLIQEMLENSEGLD
T1 chain 2: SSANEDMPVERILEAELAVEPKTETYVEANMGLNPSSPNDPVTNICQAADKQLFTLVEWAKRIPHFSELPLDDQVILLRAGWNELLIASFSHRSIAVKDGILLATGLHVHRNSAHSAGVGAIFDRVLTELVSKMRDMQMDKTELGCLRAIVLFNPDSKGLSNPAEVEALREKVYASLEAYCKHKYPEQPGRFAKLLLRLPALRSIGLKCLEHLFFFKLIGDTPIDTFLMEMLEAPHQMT
Put plainly: FP; Kapp, competition with fluorescein-NCOA1 peptide, + ATRA.

Test [2] has as its target T1, RARA/RXRA heterodimer (ligand-binding …). In words: FP; + DMSO (no ATRA).
For test [3] the target is unchanged. In words: FP; + ATRA.

Usually Kd stands for a measure of binding affinity in units of concentration.

No end group written: not given here. fluorescein = fluorescein (FAM) fluorescent label

B1: UBR5 aa1251 (peptide)
chain: RLDLLYRLLTATN
In the case of B1, in test [1], the “apparent binding constant (Kapp)” value was 3.1 µM.

B2: NCOA1 aa686 (peptide)
chain: ARHKILHRLLQEGS
modifications: unlabelled competitor; the tracer form carries N-terminal fluorescein. The text prints limits 687-698 for a 14-mer; the LXXLL motif at 690-694 places RHKILHRLLQEGS at 686-698, with an extra N-terminal Ala in the printed peptide
Consider B2, for which the “apparent binding constant (Kapp)” value in test [1] amounted to 3.7 µM.

B3: UBR5 aa1098 (peptide)
chain: LQPYLRELLSAKD
Take B3: in test [1], the “apparent binding constant (Kapp)” value turned out to be 41.4 µM.

B4: Fluorescein-labelled NCOA1 peptide residues 687–698 (Flc-ARHKILHRLLQEGS) (peptide)
peptide: fluorescein-ARHKILHRLLQEGS
Consider B4, for which the Kd in test [2] is 5.5 µM; in test [3], 0.69 µM.
